Data taken from paper PMC10528150.

Target: cytochrome c oxidase (ferrocytochrome c:oxygen oxidoreductase), solubilized complex

Substance | Activity in the cytochrome c oxidase reaction, % of WT [%] | Activity, s^−1, in the cytochrome c oxidase reaction (oxygen uptake by solubilized CcO with ascorbate and TMPD, 25 °C) [s⁻¹]
cytochrome c with substitutions K8E/E69K/K72E/K86E/K87E (from UniProt P00004 1-105) (natural protein) | < 1 | < 1
cytochrome c with substitutions E69K/K72E (from UniProt P00004 1-105) (natural protein) | 25 | 54
